Here are results for eight molecules from US20260274933A1 (Innovent, published 2026).

Assay [1] has as its target T1, biotin-labeled VEGF A165 (ACRO, Catalog No. VE5-H8210) (human, UniProt P15692-4 27-191, biotin-labeled).
T1 construct: also called hVEGF A
The experiment in a line: blocking ELISA: biotin VEGF A165 captured on streptavidin, binding of VEGFR-Fc blocked; value printed as EC50 in the table under the curves, unit from the axis. The protocol:
(§1) SA (Thermo, Catalog No. 21125) was diluted to 1 μg/mL, and 100 μL/well of SA was plated in a microplate at 4° C. overnight. The plate was washed 3 times with PBST and blocked with 3% BSA for 1.5 h. […] The plate was washed 6 times with PBST, the color development was performed with TMB for 5 min, and OD450 nm was read after stopping.

Assay [2] deals with T2, human VEGF165 (R&D) (human, UniProt P15692-4 27-191).
T2 construct: Antigen of the ForteBio assay
T2 sequence (P15692 other isoform, or with tags, fused parts or gaps limits assumed): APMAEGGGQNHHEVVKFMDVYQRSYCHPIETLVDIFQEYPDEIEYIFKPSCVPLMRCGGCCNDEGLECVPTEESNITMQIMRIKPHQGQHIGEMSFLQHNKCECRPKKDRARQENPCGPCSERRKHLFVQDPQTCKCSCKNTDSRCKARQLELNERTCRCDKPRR
In words: BLI (ForteBio), bivalent binding.

The target in assay [3] is T3, hAng2-biotin (R&D, Catalog No. BT623B/CF) (human, UniProt O15123 68-496, limits assumed, biotinylated).
T3 construct: also called Ang2-Bio (R&D, Catalog No. BT623B/CF); Recombinant Biotinylated hAngiopoietin-2 protein (R&D)
T3 sequence (looked up): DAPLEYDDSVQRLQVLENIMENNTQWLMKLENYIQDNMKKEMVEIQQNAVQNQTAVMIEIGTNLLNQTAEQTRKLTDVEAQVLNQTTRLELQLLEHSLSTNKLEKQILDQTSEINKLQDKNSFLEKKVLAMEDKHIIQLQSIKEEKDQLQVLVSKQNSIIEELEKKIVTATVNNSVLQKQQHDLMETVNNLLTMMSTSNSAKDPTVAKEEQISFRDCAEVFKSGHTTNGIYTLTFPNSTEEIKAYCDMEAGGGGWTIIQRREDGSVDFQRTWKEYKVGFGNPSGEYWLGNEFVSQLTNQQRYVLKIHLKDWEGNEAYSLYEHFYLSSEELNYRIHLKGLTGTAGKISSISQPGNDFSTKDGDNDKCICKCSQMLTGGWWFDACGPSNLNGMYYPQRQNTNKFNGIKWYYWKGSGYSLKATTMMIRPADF
In words: blocking ELISA: hTie2 coated, binding of biotinylated hAng2 blocked; unit from the axis. The protocol:
(§2) The antigen-antibody mixture obtained as described above was incubated in the microplate for 90 min and washed three times with PBS, and the supernatant was discarded. 100 μL of Avidin-HRP (Invitrogen) diluted in a 1:10000 ratio was added to each well, incubated at room temperature for 30 min, and washed six times with PBS. A TMB chromogenic solution (solarbio) was added to the plate at 100 μL/well for color development for 1 min, and the reaction was stopped by adding a stop solution (Solarbio) at 100 μL/well.

Assay [4] addresses T4, hAng2-Fc (Beijing Sino Biological, Catalog No. 10691-H02H) (human, UniProt O15123 19-496).
T4 construct: Bought fusion protein; also called human Ang2-hFc; recombinant hAng2-Fc protein; not shown: human Fc of the bought fusion protein
T4 sequence (looked up): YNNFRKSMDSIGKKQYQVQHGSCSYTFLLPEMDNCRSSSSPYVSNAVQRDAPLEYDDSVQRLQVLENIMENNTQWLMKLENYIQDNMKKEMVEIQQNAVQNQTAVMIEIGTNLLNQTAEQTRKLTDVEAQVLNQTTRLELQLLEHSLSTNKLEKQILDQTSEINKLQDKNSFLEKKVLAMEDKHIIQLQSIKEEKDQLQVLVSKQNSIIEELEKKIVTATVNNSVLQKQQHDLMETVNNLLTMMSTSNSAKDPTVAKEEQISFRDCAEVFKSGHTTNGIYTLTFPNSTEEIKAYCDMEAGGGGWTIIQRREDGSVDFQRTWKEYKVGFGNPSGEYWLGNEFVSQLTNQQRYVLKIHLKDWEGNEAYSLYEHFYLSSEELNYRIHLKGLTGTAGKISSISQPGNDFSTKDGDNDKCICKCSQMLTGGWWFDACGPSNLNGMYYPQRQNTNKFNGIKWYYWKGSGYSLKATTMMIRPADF
The experiment in a line: flow cytometry blocking: binding of hAng2-Fc to Tie2 on 293-Tie2 cells blocked, Mean-PE-A; unit from the axis. The protocol:
(§3) The cells were centrifuged at 300 g for 5 min. The supernatant was discarded. Then the cells were resuspended in an antigen-antibody mixture. The mixture was incubated on ice for 30 min. PBS was added at 100 μL/well. After centrifugation at 300 g for 5 min, the mixture was washed once with PBS. 100 μL of goat anti-human IgG-PE (SouthernBiotech) diluted in a 1:200 ratio was added to each well. After a 20-min ice bath, PBS was added at 100 μL/well. The mixture was centrifuged at 300 g for 5 min, prior to one wash with PBS. The cells were resuspended with 100 μL of PBS. The cell fluorescence signal values were measured by a flow cytometer (BD Biosciences). According to MFI, the concentration-dependent curve was fitted with GraphPad.

Assay [5] addresses T5, human Ang2 (human, UniProt O15123 19-496, limits assumed).
T5 construct: Antigen of the ForteBio assay; also called human Ang2 (Beijing Sino Biological)
T5 sequence (looked up): T4 sequence (looked up)
In words: BLI (ForteBio), bivalent binding.

Assay [6] deals with T5, human Ang2. In words: BLI (ForteBio), monovalent binding.
For assay [7], the target named is T5, human Ang2. In words: BLI (ForteBio), bivalent binding; * dissociation constant exceeding ForteBio detection limits.
The target of assay [8] is T4, hAng2-Fc (Beijing Sino Biological, …). The experiment in a line: flow cytometry blocking: binding of hAng2-Fc to Tie2 on 293-Tie2 cells blocked, Mean PE-A; unit from the axis. The protocol:
as §3

Assay [9] concerns the target T2, human VEGF165 (R&D). In words: BLI (ForteBio), monovalent binding.
The target in assay [10] is T3, hAng2-biotin (R&D, Catalog No. …). The experiment in a line: blocking ELISA: hTie2 coated, binding of biotinylated hAng2; fit value printed for the flat curve of the negative control, unit from the axis. The protocol: as §2
Assay [11] shares this target. Described as above. The protocol:
as §2
The source holds these as a separate data set.

Assay [12] has as its target T1, biotin-labeled VEGF A165 (ACRO, Catalog …). In words: blocking ELISA: biotin VEGF A165 captured on streptavidin, binding of VEGFR-Fc; fit value printed for the flat curve of the negative control, unit from the axis. The protocol: as §1
The target of assay [13] is T4, hAng2-Fc (Beijing Sino Biological, …). In words: flow cytometry blocking: binding of hAng2-Fc to Tie2 on 293-Tie2 cells, Mean PE-A; fit value printed for the flat curve of the negative control, unit from the axis. The protocol:
as §3

The target is the same in assay [14]. The experiment in a line: flow cytometry blocking: binding of hAng2-Fc to Tie2 on 293-Tie2 cells, Mean-PE-A; fit value printed for the flat curve of the negative control, unit from the axis. The protocol: as §3

Numbering of substitutions follows the chain as printed.

T1 sequence (P15692 other isoform, or with tags, fused parts or gaps limits assumed): as the sequence (P15692 other isoform, or with tags, fused parts or gaps limits assumed) above

B1: BI-anti-VEGF (VHH)
VHH: DVQLVESGGGLVQPGGSLRLSCAASGRTFSSYSMGWFRQAPGKEREFVVAISKGGYKYDAVSLEGRFTISRDNAKNTVYLQINSLRPEDTAVYYCASSRAYGSSRLRLADTYEYWGQGTLVTVSS
notes: also called Positive control antibody BI-anti-VEGF
Turning to B1, in [1], the EC50 was 0.034 µg/mL.

B2: LA42F8.5 (VHH)
VHH: EVQLLESGGGLVQPGGSLRLSCAASGFNLDYYPIGWFRQAPGKGLEGVSCISSVGSTNYADSVKGRFTISRDNSKNTVYLQMNSLRAEDTAVYYCAADPLCSALILPPPFLSWGQGTQVTVSS
notes: also called humanized LA42F8
B2: in the assay with human VEGF165 (R&D) [2], the Kd turned out to be 0.2 nM, the koff stood at 0.000213 s⁻¹ and the kon came out at 1.06e+06 M⁻¹ s⁻¹.

B3: IEX04-012 (bispecific antibody)
chain: DIQLTQSPSSLSASVGDRVTITCSASQDISNYLNWYQQKPGKAPKVLIYFTSSLHSGVPSRFSGSGSGTDFTLTISSLQPEDFATYYCQQYSTVPWTFGCGTKVEIKGGGGSGGGGSGGGGSGGGGSEVQLVESGGGLVQPGGSLRLSCAASGYDFTHYGMNWVRQAPGKCLEWVGWINTYTGEPTYAADFKRRFTFSLDTSKSTAYLQMNSLRAEDTAVYYCAKYPYYYGTSHWYFDVWGQGTLVTVSSGGGGSGGGGSGGGGSEVQLLESGGGLVQPGGSLRLSCAASGFALDYYAIGWFRQAPGKGLEGVSCISSGEGSTYYADSVKGRFTISRDNSKNTVYLQMNSLRAEDTAVYYCATDSRGDDVACEGLRRNEYDYWGQGTLVTVSS
notes: also called Ranibizumab scFv containing disulfide bond mutations + linker + LA24C11.10; recombinant anti-VEGF A/anti-Ang2 bispecific antibody
Take B3: the IC50 in [3] was found to be 7.1 nM; in [4] it was 0.685 nM.

B4: LA24C11 (Ang2 VHH) (VHH)
VHH: QVQLVESGGGLVQPGGSLRLSCAASGFALDYYAIGWFRQAPGKEREGVSCISSGDGSTYYADSVKGRFTISRDNAKNTVYLQMNSLKPEDTAVYYCATDSRGDDVACEGLRRNEYDYWGQGTQVTVSS
notes: Alpaca anti-Ang2 VHH
In the case of B4, the Kd with human Ang2 [5] was 0.867 nM; with human Ang2 [6] it was 2.18 nM. The kon with human Ang2 [5] was 231000 M⁻¹ s⁻¹; with human Ang2 [6], 761000 M⁻¹ s⁻¹. Further, the koff in the assay with human Ang2 [6] is 0.00166 s⁻¹; with human Ang2 [7] it was at most 0.0002 s⁻¹.

B5: IEX04-008 (bispecific antibody)
chain: EVQLLESGGGLVQPGGSLRLSCAASGSIFSINAMGWHRQAPGKQRELVATMIGGSSTFYAESVQGRFTISRDNSKNTVYLQMNSLRAEDTAVYYCYADVTGRSGTSIWNKRDDYWGQGTQVTVSSGGGGSGGGGSEVQLLESGGGLVQPGGSLRLSCAASGSIFSINAMGWHRQAPGKQRELVATMIGGSSTFYAESVQGRFTISRDNSKNTVYLQMNSLRAEDTAVYYCYADVTGRSGTSIWNKRDDYWGQGTQVTVSSGGGGSGGGGSEVQLLESGGGLVQPGGSLRLSCAASGFALDYYAIGWFRQAPGKGLEGVSCISSGEGSTYYADSVKGRFTISRDNSKNTVYLQMNSLRAEDTAVYYCATDSRGDDVACEGLRRNEYDYWGQGTLVTVSS
notes: also called LA46E11.8 (VHH) + linker + LA46E11.8 (VHH) + LA24C11.10
For B5, the results for the IC50 in [3] and in assay [8] were 13.5 nM and 0.554 nM, respectively.

B6: LA46E11 (VEGFA VHH) (VHH)
VHH: QVQLEESGGGLVQPGGSLRLSCVASGSIFSINAMGWHRQAPGSQRELVATMIGGSSTFYADSVNGRFTISRDNAKNTVYLQMNSLKLEDTAVYYCYADVTGRSGTSIWNKRDDYWGQGTLVTVSS
notes: Alpaca anti-VEGF A VHH; also called LA46E11 supernatant
B6: in the assay with human VEGF165 (R&D) [2], the Kd was found to be 1.11 nM, the koff turned out to be 0.0002 s⁻¹ and the kon was found to be 179000 M⁻¹ s⁻¹. In the assay with human VEGF165 (R&D) [9], the Kd was 7.74 nM, the koff is 0.00142 s⁻¹ and the kon worked out at 184000 M⁻¹ s⁻¹. In assay [1], this molecule yielded an EC50 of 0.344 µg/mL.

B7: LA46E11.8 (VEGFA VHH) (VHH)
VHH: B6 VHH with Q1E, E5L, V23A, S43K, D61E, N64Q, A74S, K86R, L87A, L120Q
notes: Humanized anti-VEGF A VHH; also called humanized LA46E11
In the assay with human VEGF165 (R&D) [2], B7 returned a Kd of 0.788 nM, a koff of 0.000332 s⁻¹ and a kon of 421000 M⁻¹ s⁻¹.

B8: IgG (antibody, V domains shown)
VH: EVRLLESGGGLVQPGGSLRLSCAASGFTFSNYAMGWVRQAPGKGLEWVSAISGSGGSTYYADSVKGRFTTSRDDSKNALYLQMNSLRAEDTAVYYCARGGPGWYAADVWGQGTTVTVSS
VL: DIQMTQSPSSLSASVGDRVTITCRASQSISSYLNWYQQKPGKAPKLLIYAASSLQSGVPSRFSGSGSGTDFTLTISSLQPEDFATYYCQQADLPAFAFGGGTKVEIKR
notes: also called Negative control IgG
In the case of B8, the IC50 is around 0.596 nM in [10], around 6.79 nM in assay [11], around 0.019 nM in [13] and around 10.1 nM in assay [14]. This molecule displayed an EC50 in [12] of 0.00208 µg/mL.
